Reference: publication PMC9850916 (Biochemistry, 2022)

Columns and labels:
Test in all cases: SPR
[1] = biological target: papain-digested Fc fragment of commercially available rituximab (human, N-glycosylated)
[2] = biological target: IgG1-Fc fragment produced by Expi293 cells (human, N-glycosylated)
[3] = biological target: maltose-binding protein-linked IgG1-Fc fragment ( | human, N-glycosylated Fc)

Kd [1]: 1660 nM
koff [1]: 0.0721 s⁻¹
kon [1]: 43900 M⁻¹ s⁻¹
Kd [2]: 1680 nM
koff [2]: 0.0802 s⁻¹
kon [2]: 47800 M⁻¹ s⁻¹
Kd [3]: 3470 nM
koff [3]: 0.0635 s⁻¹
kon [3]: 18400 M⁻¹ s⁻¹
B1: mutant human FcγRIIIa (V158) ectodomain (amino acid residues 1–175) with nine amino acid mutations a (receptor)
chain: RTEDLPKAEVILEPQWNRVLEKDSVTLKCRGAYSPEDNSTQWFHNESLISSQASSYLIDAATVDDSGEYRCQTSLSTLSDPVQLEVHIGWLLLQAPRWEFKEGDPIHLRCHSWKNTALHKVTYLQNGKGRKYFHHNSDFYIPKATLKDSGSYSCRGLVGSKNVSSETVNITITQG
